# Results: publication PMC12747267 (bioRxiv, 2025)
# B1: human myosin regulatory light chain (RLC, MYL12B) (natural protein, UniProt O14950 1-172, looked up)
# chain: MSSKKAKTKTTKKRPQRATSNVFAMFDQSQIQEFKEAFNMIDQNRDGFIDKEDLHDMLASLGKNPTDAYLDAMMNEAPGPINFTMFLTMFGEKLNGTDPEDVIRNAFACFDEEATGTIQEDYLRELLTTMGDRFTDEEVDELYREAPIDKKGNFNYIEFTRILKHGAKDKDD
# Molecular target: the molecule itself
# Assay: cryo-EM structure
protein,measurement,value
B1,binding result,binds
